{
  "source": "patent US20160047821",
  "key": {"[1]": {"target": "T1, GST-RelB deletion mutant Δ1 (amino acids 274-321)", "T1 chain": "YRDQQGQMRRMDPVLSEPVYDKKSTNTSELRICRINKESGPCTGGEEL"}, "[2]": {"target": "T2, GST-RelB deletion mutant Δ2 (amino acids 316-377)", "T2 chain": "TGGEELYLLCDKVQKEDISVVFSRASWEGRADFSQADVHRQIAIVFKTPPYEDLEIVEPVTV"}, "[3]": {"target": "T3, GST-RelB deletion mutant Δ3 (amino acids 372-448)", "T3 chain": "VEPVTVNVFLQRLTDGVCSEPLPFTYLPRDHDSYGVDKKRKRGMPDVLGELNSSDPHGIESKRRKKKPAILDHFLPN"}, "[4]": {"target": "T4, GST-RelB deletion mutant Δ4 (amino acids 441-504)", "T4 chain": "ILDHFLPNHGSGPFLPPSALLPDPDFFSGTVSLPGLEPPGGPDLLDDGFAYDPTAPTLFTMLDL"}, "[5]": {"target": "T5, GST-RelB deletion mutant Δ5 (amino acids 499-580)", "T5 chain": "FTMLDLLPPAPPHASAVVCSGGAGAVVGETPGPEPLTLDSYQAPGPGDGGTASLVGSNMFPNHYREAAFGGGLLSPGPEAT"}, "[6]": {"target": "T6, GST-RelB Δ4 point mutant S451A", "T6 chain": "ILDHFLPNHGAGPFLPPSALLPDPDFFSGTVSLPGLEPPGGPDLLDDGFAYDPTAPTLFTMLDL"}, "[7]": {"target": "T7, GST-RelB Δ4 point mutant S458A", "T7 chain": "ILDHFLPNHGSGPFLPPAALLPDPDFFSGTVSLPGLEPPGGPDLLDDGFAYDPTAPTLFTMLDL"}, "[8]": {"target": "T8, GST-RelB Δ4 point mutant S468A", "T8 chain": "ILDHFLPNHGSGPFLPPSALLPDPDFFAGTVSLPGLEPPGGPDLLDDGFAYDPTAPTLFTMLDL"}, "[9]": {"target": "T9, GST-RelB Δ4 point mutant S472A", "T9 chain": "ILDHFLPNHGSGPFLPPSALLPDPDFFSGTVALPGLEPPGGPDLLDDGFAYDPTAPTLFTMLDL"}},
  "data": [
    {"protein": "IκB kinase (IKK) complex (endogenous, WT MEFs) (protein) chain 1: MERPPGLRPGAGGPWEMRERLGTGGFGNVSLYQHRELDLKIAIKSCRLELSSKNRERWCHEIQIMKKLDHANVVKACDVPEELNFLINDVPLLAMEYCSGGDLRKLLNKPENCCGLKESQILSLLSDIGSGIRYLHENKIIHRDLKPENIVLQDVGGKTIHKIIDLGYAKDVDQGSLCTSFVGTLQYLAPELFENKPYTATVDYWSFGTMVFECIAGYRPFLHHLQPFTWHEKIKKKDPKCIFACEEMTGEVRFSSHLPQPNSLCSLIVEPMESWLQLMLNWDPQQRGGPIDLTLKQPRCFALMDHILNLKIVHILNMTSAKIISFLLPCDESLHSLQSRIERETGINTGSQELLSETGISLDPRKPASQCVLDGVRGCDSYMVYLFDKSKTVYEGPFASRSLSDCVNYIVQDSKIQLPIIQLRKVWAEAVHYVSGLKEDYSRLFQGQRAAMLSLLRYNANLTKMKNTLISASQQLKAKLEFFRKSIQLDLERYSEQMTYGISSEKMLKAWKEMEEKAIHYSEVGVIGYLEDQIMSLHTEIMELQKSPYGRRQGDLMESLEQRAIDLYKQLKHRPPDHLYSDSTEMVKIIVHTVQSQDRVLKELFGHLSKLLGCKQKIIDLLPKVEVALSNIKEADNTVMFMQGKRQKEIWHLLKIACTQSSARSLVGSSLEGTVTPPVSAWLPPTLADREHPLTCVVTPQDGETLAQMIEENLNCLGHLSTIIREANEDQSSSLMSLDWSWLAE chain 2: MSWSPSLPTQTCGAWEMKERLGTGGFGNVIRWHNQATGEQIAIKQCRQELSPKNRNRWCLEIQIMRRLNHPNVVAARDVPEGMQNLAPNDLPLLAMEYCQGGDLRRYLNQFENCCGLREGAVLTLLSDIASALRYLHENRIIHRDLKPENIVLQQGEKRLIHKIIDLGYAKELDQGSLCTSFVGTLQYLAPELLEQQKYTVTVDYWSFGTLAFECITGFRPFLPNWQPVQWHSKVRQKSEVDIVVSEDLNGAVKFSSSLPFPNNLNSVLAERLEKWLQLMLMWHPRQRGTDPQYGPNGCFRALDDILNLKLVHVLNMVTGTVHTYPVTEDESLQSLKTRIQENTGILETDQELLQKAGLVLLPDKPATQCISDSKTNEGLTLDMDLVFLLDNSKINYETQITPRPPPESVSCILQEPKRNLSFFQLRKVWGQVWHSIQTLKEDCNRLQQGQRAAMMSLLRNNSCLSKMKNAMASTAQQLKAKLDFFKTSIQIDLEKYKEQTEFGITSDKLLLAWREMEQAVEQCGRENDVKHLVERMMALQTDIVDLQRSPMGRKQGGTLDDLEEQARELYRKLREKPRDQRTEGDSQEMVRLLLQAIQSFEKKVRVIYTQLSKTVVCKQKALELLPKVEEVVSLMNEDERTVVRLQEKRQKELWNLLKIACSKVRGPVSGSPDSMNVSRLSHPGQLMSQPSSACDSLPESDKKSEELVAEAHALCSRLESALQDTVKEQDRSFTTLDWSWLQMEDEERCSLEQACD chain 3: MNKHPWKNQLSEMVQPSGGPAEDQDMLGEESSLGKPAMLHLPSEQGTPETLQRCLEENQELRDAIRQSNQMLRERCEELLHFQVSQREEKEFLMCKFQEARKLVERLSLEKLDLRSQREQALKELEQLKKCQQQMAEDKASVKAQVTSLLGELQESQSRLEAATKDRQALEGRIRAVSEQVRQLESEREVLQQQHSVQVDQLRMQNQSVEAALRMERQAASEEKRKLAQLQAAYHQLFQDYDSHIKSSKGMQLEDLRQQLQQAEEALVAKQELIDKLKEEAEQHKIVMETVPVLKAQADIYKADFQAERHAREKLVEKKEYLQEQLEQLQREFNKLKVGCHESARIEDMRKRHVETPQPPLLPAPAHHSFHLALSNQRRSPPEEPPDFCCPKCQYQAPDMDTLQIHVMECIE", "values": [
      {"measurement": "IKKγ kinase assays (phosphorylation of the GST-RelB substrate, 32P autoradiography)", "setting": "[1]", "value": "Only mutant Δ4 was efficiently phosphorylated by IKKγ"},
      {"measurement": "IKKγ kinase assays (phosphorylation of the GST-RelB substrate, 32P autoradiography)", "setting": "[2]", "value": "Only mutant Δ4 was efficiently phosphorylated by IKKγ"},
      {"measurement": "IKKγ kinase assays (phosphorylation of the GST-RelB substrate, 32P autoradiography)", "setting": "[3]", "value": "Only mutant Δ4 was efficiently phosphorylated by IKKγ"},
      {"measurement": "IKKγ kinase assays (phosphorylation of the GST-RelB substrate, 32P autoradiography)", "setting": "[4]", "value": "Only mutant Δ4 was efficiently phosphorylated by IKKγ"},
      {"measurement": "IKKγ kinase assays (phosphorylation of the GST-RelB substrate, 32P autoradiography)", "setting": "[5]", "value": "Only mutant Δ4 was efficiently phosphorylated by IKKγ"},
      {"measurement": "in vitro kinase assays (phosphorylation of GST-RelB Δ4 point mutants)", "setting": "[6]", "value": "only a point mutation at serine 472 abolished phosphorylation of the Δ4 RelB deletion mutant"},
      {"measurement": "in vitro kinase assays (phosphorylation of GST-RelB Δ4 point mutants)", "setting": "[7]", "value": "only a point mutation at serine 472 abolished phosphorylation of the Δ4 RelB deletion mutant"},
      {"measurement": "in vitro kinase assays (phosphorylation of GST-RelB Δ4 point mutants)", "setting": "[8]", "value": "only a point mutation at serine 472 abolished phosphorylation of the Δ4 RelB deletion mutant"},
      {"measurement": "in vitro kinase assays (phosphorylation of GST-RelB Δ4 point mutants)", "setting": "[9]", "value": "only a point mutation at serine 472 abolished phosphorylation of the Δ4 RelB deletion mutant"}
    ]}
  ]
}
